± gives the uncertainty stated by the source.
Assay: protein stability index of a GFP-peptide fusion (yeast GPS) (PSI 1-4); higher = more stable; sorted into four equal gates, so the index is relative within each strain
Settings: doa10∆
Summary of the method: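 Tiled yeast protein peptides of 17 residues were each joined downstream of GFP, on plasmids that also express Cherry. The pooled library was maintained in yeast, and mid-log cultures in leucine-free medium were sorted into four equal gates on the GFP/Cherry ratio. Plasmids from every gate were amplified by PCR and sequenced on Illumina, with barcodes linking reads to strains. The protein stability index of a peptide is its gate-number-weighted read frequency summed over the gates.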
Sequence IDVTFTKVNNQLIKVAV [RPL9A] has a protein stability index of 2.23 ± 0.068.

Same assay, conditions: pdr5∆
For GYILEGEELAFYLRRLT [RPS8A], the protein stability index was 1.41 ± 0.07. With GYTQHGGLRPFGVSFIY [PRE9] the protein stability index was 2.03 ± 0.098. For HASFLCSFITQDKMFVS [FAS1], the protein stability index was 1.64 ± 0.056. HATVVPPEEFSNTIDEL [SRB7] gave a protein stability index of 3.25 ± 0.09. Sequence HCYPRQLCQITCQILES [RRP46] has a protein stability index of 1.9 ± 0.058. HDEKTLAPSKHQPITSE [SIR4] showed a protein stability index of 2.27 ± 0.1. HDKNIQKLLKQLDSDAN [ISW2] showed a protein stability index of 2.52 ± 0.049. For HDSILHSRILPKKALKV [RRP43], the protein stability index was 2.04 ± 0.041. Work on HDVGELFWKVKEEEGSF [PRE2] yielded a protein stability index of 2.97 ± 0.08. HEFKLIVGKKIQEFLVV [GRR1] showed a protein stability index of 2.09 ± 0.062. HELGINIDSLKFNELVK [BRR2] gave a protein stability index of 2.93 ± 0.058. With HELPRYGITHGLTNWAA [RPL5] the protein stability index was 2.42 ± 0.035. Work on HFPINVNIVEKDGAKFI [RPL9A] yielded a protein stability index of 2.57 ± 0.079. Sequence HGAASFLKERLMEASDA [RPB2] has a protein stability index of 1.48 ± 0.09. In the case of HGIKDIPIGHVHVIHFQ [AAR2], the protein stability index is reported as 2.86 ± 0.058. Work on HGKRRSQVVETHKVTDI [YMR129W/POM152] yielded a protein stability index of 3.01 ± 0.13. HHAIEEAESLLQFHVAT [RPO21] showed a protein stability index of 2.89 ± 0.13. HHYRPDMTTEEGLDLLK [PRE1] showed a protein stability index of 3.41 ± 0.17. With HIIQAKADAQREKALNE [RPL19A] the protein stability index was 3.38 ± 0.094. For HIRKASSKKSKRLDKVG [LRP1], the protein stability index was 2.78 ± 0.1. HITSVPISAVLRGCKFL [GRR1] gave a protein stability index of 1.66 ± 0.048. Work on HIVQDCTLTADGAYALS [ASC1] yielded a protein stability index of 2.69 ± 0.062. Work on HKDIPEEDFYTVVGNAS [DSN1] yielded a protein stability index of 2.91 ± 0.18. HKHREARGLTATGKKSR [RPL15A] showed a protein stability index of 3.37 ± 0.15. HKISFSGTKSEVLTYVN [YJL039C/NUP192] showed a protein stability index of 2.49 ± 0.082. Work on HKKKRSNAAGADDAISM [SRB8] yielded a protein stability index of 2.45 ± 0.067. In the case of HKNERRVLEIQTSLVRM [SKI6], the protein stability index is reported as 2.63 ± 0.078. HKSLIRSISWAPSIGRW [YGL100W/SEH1] showed a protein stability index of 3.1 ± 0.11. HKVQTKLTRELEKKFQD [RPS7A] showed a protein stability index of 2.01 ± 0.06. Sequence HLDNSKSVFSSAGLDSA [RPN1] has a protein stability index of 2.69 ± 0.043. With HLEEYGYLIQVLLTFLQ [YCS4] the protein stability index was 1.35 ± 0.09. Sequence HLILDKLNQKYDIVKFL [GRR1] has a protein stability index of 1.66 ± 0.035. HLPCTIEAEEAEEIGVE [RPN8] showed a protein stability index of 1.74 ± 0.082. For HNGSHRTVAGFSNVELP [ARP7], the protein stability index was 2.83 ± 0.07. In the case of HNGWVTSLATSAGQPNL [ASC1], the protein stability index is reported as 2.04 ± 0.049. With HNSVKRYQIMLPEQLKS [SNM1] the protein stability index was 1.59 ± 0.052. Work on HPFIPLLKEKPNALKPL [RRP6] yielded a protein stability index of 2.7 ± 0.067. HPGYDCWLSNIDIQTQD [RRI1] showed a protein stability index of 3.14 ± 0.091. Sequence HPNRVLEHLHSTAFQNT [COR1] has a protein stability index of 2.92 ± 0.047. Work on HPTIYESLPQYVDFVPM [POP4] yielded a protein stability index of 2 ± 0.048. In the case of HPTTIESLREIPYGPDF [SEC65], the protein stability index is reported as 3.17 ± 0.06. HPVSLISFAIYSALNST [RRP42] showed a protein stability index of 1.55 ± 0.058. In the case of HPYEYEIDHQEYSPEIL [RRP6], the protein stability index is reported as 2.69 ± 0.042. In the case of HQQRMSRTAADILLRLC [YCG1], the protein stability index is reported as 1.63 ± 0.2. HRCAIRSGALIKFKKCD [SSN2] gave a protein stability index of 2.26 ± 0.1. HRLTLEDPVTVEYLTRY [PRE6] gave a protein stability index of 3.64 ± 0.24. For HSDMASKMYNTDKKAFL [PRP8], the protein stability index was 2.65 ± 0.056. For HSPFPFNRTKGKMVRAQ [PRP8], the protein stability index was 1.16 ± 0.14. Sequence HSRKMNLTRGINLRKVA [RPT6] has a protein stability index of 1.36 ± 0.05. With HSVQETNKISPKDFSPN [SSN2] the protein stability index was 2.68 ± 0.078. With HTKFEVAIGLNGKIWVK [RRP40] the protein stability index was 2.48 ± 0.065. Work on HVKNFGFANSLTFILGQ [YML031W/NDC1] yielded a protein stability index of 1.74 ± 0.076. HVKQCQETCDKLRARLV [SMC2] showed a protein stability index of 2.74 ± 0.14. HVLNKVTLASILTTAVG [RPN1] gave a protein stability index of 1.41 ± 0.079. HVLSRLSYISALGMMTR [RET1] gave a protein stability index of 1.32 ± 0.053. Sequence HVLYKESKGNAFKHKRA [RPL19A] has a protein stability index of 2.49 ± 0.12. Work on HWLQLAKGVYRPNGRKD [POP1] yielded a protein stability index of 3.12 ± 0.049. HYGLAVDIYTHFTSPIR [DIS3] showed a protein stability index of 1.86 ± 0.052. HYGNEHIRRMVPLAMGI [RPN1] gave a protein stability index of 1.33 ± 0.064. HYGQTLGKKKNVKEEET [RPS8A] showed a protein stability index of 2.84 ± 0.035. HYLVLLVAKFLYPIFLL [YJR042W/NUP85] showed a protein stability index of 1.22 ± 0.032. IAATQDFITGSYLISHK [RPO31] gave a protein stability index of 3.14 ± 0.085. Sequence IACVLTVINEQQREAVR [RPL35A] has a protein stability index of 2.12 ± 0.068. With IAGFDLIGCIDEAKDFI [PUP3] the protein stability index was 3.33 ± 0.13. In the case of IAGINKKKGLDENTSGK [PRP28], the protein stability index is reported as 3.47 ± 0.089. IALILAIQMVDPASFYL [SMC3] gave a protein stability index of 1.25 ± 0.055. IALMGQDNKKIYVHVRR [ESC2] showed a protein stability index of 2.57 ± 0.12. IAPPVAPHDSEATLLTN [SNF5] gave a protein stability index of 2.82 ± 0.068. For IAQGIDLVRDIDIDKLI [SRP72], the protein stability index was 1.23 ± 0.12. In the case of IASLERELILAKKQNYK [YCG1], the protein stability index is reported as 3.07 ± 0.06. ICDPVHKHREARGLTAT [RPL15A] showed a protein stability index of 2.81 ± 0.14. Work on ICLMTLIETVFVKNIRM [RPN9] yielded a protein stability index of 1.3 ± 0.069. In the case of IDDNYIVVVIEIITSLS [SRB8], the protein stability index is reported as 2.87 ± 0.081. With IDEAHRIKNEQSALSQI [ISW2] the protein stability index was 2.17 ± 0.091. Sequence IDHINEESWEKVVEFAI [SCL1] has a protein stability index of 3.08 ± 0.082. For IDKITDGLGNVVDFTSL [YMR129W/POM152], the protein stability index was 3.53 ± 0.13. In the case of IDMDKLNTVLIADLDTE [RRP43], the protein stability index is reported as 3.02 ± 0.07.

Reference: the supplement of paper PMC9732359
